Here are results for 1 molecule from patent publication US20240209070A1 (LUNDQUIST INSTITUTE FOR BIOMEDICAL INNOVATION AT HARBOR …, published 2024).

Experiment [1] has as its target T1, recombinant CotH3 protein of Rhizopus delemar 99-880 (Flag-TEV-CotH3 made in S. cerevisiae) (Rhizopus delemar 99-880 (Rhizopus …, UniProt I1CFE1 18-579)).
T1 construct: also called CotH3 antigen; rCotH3p
T1 sequence: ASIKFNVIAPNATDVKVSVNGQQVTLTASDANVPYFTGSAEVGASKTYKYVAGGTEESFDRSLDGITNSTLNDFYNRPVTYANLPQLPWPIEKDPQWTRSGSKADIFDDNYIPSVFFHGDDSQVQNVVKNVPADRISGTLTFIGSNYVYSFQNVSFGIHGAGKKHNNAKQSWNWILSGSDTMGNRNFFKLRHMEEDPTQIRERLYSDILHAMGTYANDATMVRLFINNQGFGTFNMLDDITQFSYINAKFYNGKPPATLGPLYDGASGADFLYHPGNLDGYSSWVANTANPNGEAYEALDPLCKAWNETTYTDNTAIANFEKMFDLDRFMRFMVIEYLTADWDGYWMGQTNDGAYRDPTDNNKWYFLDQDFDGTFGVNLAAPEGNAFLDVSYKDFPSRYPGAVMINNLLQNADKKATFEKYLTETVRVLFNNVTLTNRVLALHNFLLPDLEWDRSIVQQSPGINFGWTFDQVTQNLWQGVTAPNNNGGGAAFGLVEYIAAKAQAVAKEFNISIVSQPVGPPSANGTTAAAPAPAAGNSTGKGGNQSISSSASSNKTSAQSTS
Description: not stated (conclusions; reported affinity).

Experiment [2] concerns the target T1, recombinant CotH3 protein of Rhizopus …. Description: dose response of Fnorm [per mille] against ligand concentration [M], Kd model, On Time 20s, TargetConc 5nM, Unbound 829.3, Bound 803.3, amplitude 26.0, signal to noise 20.5; method and antigen not named in the filing's text.
Experiment [3] shares this target. Description: method and antigen form not stated.
The target is the same in experiment [4].

Where two headings read alike, the source gives them in different places.

B1: mouse anti-CotH3 monoclonal antibody clone C2 (antibody, V domains shown)
VH: DLQLQESGPSLVKPSQTLSLTCSVTGDSITSGYWNWIRKFPGNKLEHMGYIKYSGRTFYNPSLKSRVSITRDTSKNQYYLQLNSVTSEDTATYYCASRGYWGQGTTLTVSS
VL: DVVMTQTPLSLSVTIGQPASISCKSSQSLLYSNGKTYLNWLQQRPGQAPKLLMFQVSKPGIPDRFSGSGSETDFTLKISRVEAEDLGVYYCLQGTYFPHTFGAGTKVEIK
notes: also called 6E11A8 mAb; mAb
Consider B1, for which the Kd was roughly 50 nM in experiment [1], 40.4 nM in experiment [2], roughly 40 nM in experiment [3] and 58.9 nM in experiment [4]. The koff in experiment [4] worked out at 0.00141 s⁻¹. The kon in experiment [4] was found to be 23900 M⁻¹ s⁻¹.
